Our source for the binding signal and Kd values is patent publication US20140148356.

Data set [1] addresses HBcAg (Hepatitis B virus core protein, 21 kDa) (Hepatitis B virus) (UniProt P03146). Particulars: affinity qPCR; 7.6 nM HBcAg, 1 nM DNA. (In qPCR the cycle at which signal appears reflects the starting amount.)
For data set [2] the target is unchanged. The settings on record: affinity qPCR on Ni-NTA plate; 0.1 nM aptamer, 0.1-5 nM protein; 20 mM Tris-HCl pH 7.6, 5 mM KCl, 100 mM NaCl, 5 mM MgCl2, 1 mM CaCl2, RT 1 h.

HBcAg (Hepatitis B virus core protein, 21 kDa) (Hepatitis B virus), sequence (P03146 whole entry): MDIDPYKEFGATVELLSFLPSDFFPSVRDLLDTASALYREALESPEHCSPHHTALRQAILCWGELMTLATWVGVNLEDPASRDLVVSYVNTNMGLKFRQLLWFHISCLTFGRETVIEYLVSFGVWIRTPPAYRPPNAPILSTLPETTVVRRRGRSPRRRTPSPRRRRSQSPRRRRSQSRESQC

In the case of “AGCAGCACAGAGGTCAGATGACATCTAGAACCAACGGTTCTGTTTGATGAGAATTCGGCCCCTATGCGTGCTACCGTGAA [A-19]”, the binding signal in data set [1] is 1.17 % bound.
On the same count and under the same terms, then “AGCAGCACAGAGGTCAGATGAGGCCTGGTGATCGTGCCCAGGCCATATGAGCAAGGAACCCCTATGCGTGCTACCGTGAA [A-9]”, with 1 % bound.
By Kd is commonly meant the free concentration of one partner at which half of the binding sites on the other are occupied at equilibrium, for simple one-to-one binding. Read a high Kd as a looser complex. Sequence “AGCAGCACAGAGGTCAGATGGTTACATGCGCAGTAGCCGACGTACTCTGGTAAAAGGTAGCCTATGCGTGCTACCGTGAA [A-38]” displayed a binding signal in data set [1] of 7.2 % bound. Further, the Kd in data set [2] was 0.16 nM.
Sequence “AGCAGCACAGAGGTCAGATGTTGCATACGCCAAACAAGCATTGACAAGGTAACCCTGGGCCCTATGCGTGCTACCGTGAA [A-23]” gave a binding signal in data set [1] of 1.45 % bound.
As for “AGCAGCACAGAGGTCAGATGTTTCCGAGGGAGTGGAATTAGCAAGGTGGAAGTGTTTCTACCTATGCGTGCTACCGTGAA [A-18]”, in data set [1], the binding signal is 8.3 % bound. The Kd in data set [2] amounted to 0.14 nM.
